The source of these data is publication PMC6056499, “A systematic dissection of sequence elements determining β-Klotho and FGF interaction and signaling” (Scientific Reports, 2018).

This test addresses human β-Klotho extracellular domain (aa1–992) fused with a 6 × His tag at the C-terminus (UniProt Q86Z14). Description: solid-phase binding assay. The settings on record: parent: est. 1.0; read off a plot.

Chain of human β-Klotho extracellular domain (aa1–992) fused with a 6 × His tag at the C-terminus (Q86Z14 53-992): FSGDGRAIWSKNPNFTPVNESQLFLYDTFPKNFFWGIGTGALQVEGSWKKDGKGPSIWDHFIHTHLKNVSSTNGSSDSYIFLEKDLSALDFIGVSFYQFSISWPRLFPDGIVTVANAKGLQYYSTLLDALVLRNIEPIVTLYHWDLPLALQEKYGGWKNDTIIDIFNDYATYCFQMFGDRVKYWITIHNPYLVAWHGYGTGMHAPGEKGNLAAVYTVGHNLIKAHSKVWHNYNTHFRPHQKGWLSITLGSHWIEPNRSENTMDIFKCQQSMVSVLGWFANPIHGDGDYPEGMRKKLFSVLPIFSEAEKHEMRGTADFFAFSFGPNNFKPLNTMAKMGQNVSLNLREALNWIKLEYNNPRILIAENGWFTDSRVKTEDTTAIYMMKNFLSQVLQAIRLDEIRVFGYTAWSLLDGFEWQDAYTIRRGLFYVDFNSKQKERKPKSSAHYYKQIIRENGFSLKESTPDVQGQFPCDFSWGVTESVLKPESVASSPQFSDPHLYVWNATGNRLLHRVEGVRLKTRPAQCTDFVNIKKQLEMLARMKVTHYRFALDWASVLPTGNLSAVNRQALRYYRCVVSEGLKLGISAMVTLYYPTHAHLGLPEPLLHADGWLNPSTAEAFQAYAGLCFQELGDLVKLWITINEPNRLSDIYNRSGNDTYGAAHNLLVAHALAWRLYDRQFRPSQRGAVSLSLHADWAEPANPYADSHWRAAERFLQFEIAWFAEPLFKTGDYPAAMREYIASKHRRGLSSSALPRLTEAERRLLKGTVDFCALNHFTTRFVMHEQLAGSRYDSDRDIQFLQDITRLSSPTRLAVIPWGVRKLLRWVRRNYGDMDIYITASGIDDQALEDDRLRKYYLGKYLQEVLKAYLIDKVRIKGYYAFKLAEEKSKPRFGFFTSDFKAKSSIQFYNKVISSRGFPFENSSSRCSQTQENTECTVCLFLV
Chain of mature human FGF21 polypeptide fused with the human Fc fragment at the N-terminus (Fc-FGF21), wild type (from UniProt Q9NSA1) 202G-R (Q9NSA1 29-209, change not shown): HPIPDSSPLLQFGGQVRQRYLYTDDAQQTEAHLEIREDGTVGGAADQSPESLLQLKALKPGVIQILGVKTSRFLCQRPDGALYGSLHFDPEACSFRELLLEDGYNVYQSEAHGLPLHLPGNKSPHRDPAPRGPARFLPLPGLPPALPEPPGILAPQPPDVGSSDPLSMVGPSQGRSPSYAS
Chain of mature human FGF21 polypeptide fused with the human Fc fragment at the N-terminus (Fc-FGF21), wild type (from UniProt Q9NSA1) 185P-A (Q9NSA1 29-209, change not shown): as above
Chain of mature human FGF21 polypeptide fused with the human Fc fragment at the N-terminus (Fc-FGF21), wild type (from UniProt Q9NSA1) 163R-A (Q9NSA1 29-209, change not shown): as above
Chain of mature human FGF21 polypeptide fused with the human Fc fragment at the N-terminus (Fc-FGF21), wild type (from UniProt Q9NSA1) 164F-R (Q9NSA1 29-209, change not shown): as above
Chain of mature human FGF21 polypeptide fused with the human Fc fragment at the N-terminus (Fc-FGF21), wild type (from UniProt Q9NSA1) 195S-R (Q9NSA1 29-209, change not shown): as above
Chain of mature human FGF21 polypeptide fused with the human Fc fragment at the N-terminus (Fc-FGF21), wild type (from UniProt Q9NSA1) 177P-A (Q9NSA1 29-209, change not shown): as above
Chain of mature human FGF21 polypeptide fused with the human Fc fragment at the N-terminus (Fc-FGF21), wild type (from UniProt Q9NSA1) 178P-R (Q9NSA1 29-209, change not shown): as above
Chain of mature human FGF21 polypeptide fused with the human Fc fragment at the N-terminus (Fc-FGF21), wild type (from UniProt Q9NSA1) 199P-R (Q9NSA1 29-209, change not shown): as above
Chain of mature human FGF21 polypeptide fused with the human Fc fragment at the N-terminus (Fc-FGF21), wild type (from UniProt Q9NSA1) 184Q-R (Q9NSA1 29-209, change not shown): as above
Chain of mature human FGF21 polypeptide fused with the human Fc fragment at the N-terminus (Fc-FGF21), wild type (from UniProt Q9NSA1) 185P-R (Q9NSA1 29-209, change not shown): as above
Chain of mature human FGF21 polypeptide fused with the human Fc fragment at the N-terminus (Fc-FGF21), wild type (from UniProt Q9NSA1) 178P-A (Q9NSA1 29-209, change not shown): as above
Chain of mature human FGF21 polypeptide fused with the human Fc fragment at the N-terminus (Fc-FGF21), wild type (from UniProt Q9NSA1) 166P-A (Q9NSA1 29-209, change not shown): as above
Chain of mature human FGF21 polypeptide fused with the human Fc fragment at the N-terminus (Fc-FGF21), wild type (from UniProt Q9NSA1) 175P-A (Q9NSA1 29-209, change not shown): as above
Chain of mature human FGF21 polypeptide fused with the human Fc fragment at the N-terminus (Fc-FGF21), wild type (from UniProt Q9NSA1) 180I-A (Q9NSA1 29-209, change not shown): as above
Chain of mature human FGF21 polypeptide fused with the human Fc fragment at the N-terminus (Fc-FGF21), wild type (from UniProt Q9NSA1) 183P-R (Q9NSA1 29-209, change not shown): as above
Chain of mature human FGF21 polypeptide fused with the human Fc fragment at the N-terminus (Fc-FGF21), wild type (from UniProt Q9NSA1) 169G-A (Q9NSA1 29-209, change not shown): as above
Chain of mature human FGF21 polypeptide fused with the human Fc fragment at the N-terminus (Fc-FGF21), wild type (from UniProt Q9NSA1) 181L-R (Q9NSA1 29-209, change not shown): as above
Chain of mature human FGF21 polypeptide fused with the human Fc fragment at the N-terminus (Fc-FGF21), wild type (from UniProt Q9NSA1) 170L-R (Q9NSA1 29-209, change not shown): as above
Chain of mature human FGF21 polypeptide fused with the human Fc fragment at the N-terminus (Fc-FGF21), wild type (from UniProt Q9NSA1) 201Q-R (Q9NSA1 29-209, change not shown): as above
Chain of mature human FGF21 polypeptide fused with the human Fc fragment at the N-terminus (Fc-FGF21), wild type (from UniProt Q9NSA1) 172P-A (Q9NSA1 29-209, change not shown): as above

Turning to “mature human FGF21 polypeptide fused with the human Fc fragment at the N-terminus (Fc-FGF21), wild type (from UniProt Q9NSA1) 200S-R”, the ratio to parent came to 2. For “mature human FGF21 polypeptide fused with the human Fc fragment at the N-terminus (Fc-FGF21), wild type (from UniProt Q9NSA1) 181L-A”, the ratio to parent worked out at 0.5. Next, “mature human FGF21 polypeptide fused with the human Fc fragment at the N-terminus (Fc-FGF21), wild type (from UniProt Q9NSA1) 201Q-R”: 1; “mature human FGF21 polypeptide fused with the human Fc fragment at the N-terminus (Fc-FGF21), wild type (from UniProt Q9NSA1) 163R-A”: 0.9; “mature human FGF21 polypeptide fused with the human Fc fragment at the N-terminus (Fc-FGF21), wild type (from UniProt Q9NSA1) 164F-R”: 3.

Consider “mature human FGF21 polypeptide fused with the human Fc fragment at the N-terminus (Fc-FGF21), wild type (from UniProt Q9NSA1) 184Q-R”, for which the ratio to parent was 1.8. “mature human FGF21 polypeptide fused with the human Fc fragment at the N-terminus (Fc-FGF21), wild type (from UniProt Q9NSA1) 202G-R”: the ratio to parent came to 4.8. In the case of “mature human FGF21 polypeptide fused with the human Fc fragment at the N-terminus (Fc-FGF21), wild type (from UniProt Q9NSA1) 176E-A”, the ratio to parent came to 0.5. On to “mature human FGF21 polypeptide fused with the human Fc fragment at the N-terminus (Fc-FGF21), wild type (from UniProt Q9NSA1) 195S-R”, for which the ratio to parent stood at 0.5. For the substance “mature human FGF21 polypeptide fused with the human Fc fragment at the N-terminus (Fc-FGF21), wild type (from UniProt Q9NSA1) 169G-A”, the ratio to parent was found to be 0.9. In the case of “mature human FGF21 polypeptide fused with the human Fc fragment at the N-terminus (Fc-FGF21), wild type (from UniProt Q9NSA1) 178P-A” it was 0.7; in that of “mature human FGF21 polypeptide fused with the human Fc fragment at the N-terminus (Fc-FGF21), wild type (from UniProt Q9NSA1) 178P-R”, 1.2; in that of “mature human FGF21 polypeptide fused with the human Fc fragment at the N-terminus (Fc-FGF21), wild type (from UniProt Q9NSA1) 165L-A”, 1. Turning to “mature human FGF21 polypeptide fused with the human Fc fragment at the N-terminus (Fc-FGF21), wild type (from UniProt Q9NSA1) 175P-A”, the ratio to parent amounted to 0.5. As to “mature human FGF21 polypeptide fused with the human Fc fragment at the N-terminus (Fc-FGF21), wild type (from UniProt Q9NSA1) 183P-R”, the ratio to parent was 1. With “mature human FGF21 polypeptide fused with the human Fc fragment at the N-terminus (Fc-FGF21), wild type (from UniProt Q9NSA1) 166P-A”, the ratio to parent stood at 0.6. Consider “mature human FGF21 polypeptide fused with the human Fc fragment at the N-terminus (Fc-FGF21), wild type (from UniProt Q9NSA1) 199P-R”, for which the ratio to parent amounted to 1.2. With “mature human FGF21 polypeptide fused with the human Fc fragment at the N-terminus (Fc-FGF21), wild type (from UniProt Q9NSA1) 185P-R”, the ratio to parent came out at 1.6.

For the substance “mature human FGF21 polypeptide fused with the human Fc fragment at the N-terminus (Fc-FGF21), wild type (from UniProt Q9NSA1) 185P-A”, the ratio to parent was 1.3. Next, “mature human FGF21 polypeptide fused with the human Fc fragment at the N-terminus (Fc-FGF21), wild type (from UniProt Q9NSA1) 177P-A”: 1. For “mature human FGF21 polypeptide fused with the human Fc fragment at the N-terminus (Fc-FGF21), wild type (from UniProt Q9NSA1) 170L-R”, the ratio to parent is 1. Turning to “mature human FGF21 polypeptide fused with the human Fc fragment at the N-terminus (Fc-FGF21), wild type (from UniProt Q9NSA1) 179G-A”, the ratio to parent was 1.3. Consider “mature human FGF21 polypeptide fused with the human Fc fragment at the N-terminus (Fc-FGF21), wild type (from UniProt Q9NSA1) 208A-R”, for which the ratio to parent was found to be 9. Next, “mature human FGF21 polypeptide fused with the human Fc fragment at the N-terminus (Fc-FGF21), wild type (from UniProt Q9NSA1) 189G-R”: 1.2; “mature human FGF21 polypeptide fused with the human Fc fragment at the N-terminus (Fc-FGF21), wild type (from UniProt Q9NSA1) 170L-A”: 1; “mature human FGF21 polypeptide fused with the human Fc fragment at the N-terminus (Fc-FGF21), wild type (from UniProt Q9NSA1) 177P-R”: 1.2. As to “mature human FGF21 polypeptide fused with the human Fc fragment at the N-terminus (Fc-FGF21), wild type (from UniProt Q9NSA1) 180I-A”, the ratio to parent is 0.6. Regarding “mature human FGF21 polypeptide fused with the human Fc fragment at the N-terminus (Fc-FGF21), wild type (from UniProt Q9NSA1) 209S-A”, the ratio to parent was 0.5. As for “mature human FGF21 polypeptide fused with the human Fc fragment at the N-terminus (Fc-FGF21), wild type (from UniProt Q9NSA1) 172P-A”, the ratio to parent was determined as 0.5. Next, “mature human FGF21 polypeptide fused with the human Fc fragment at the N-terminus (Fc-FGF21), wild type (from UniProt Q9NSA1) 181L-R”: 1.2.
